Laboratory results reported in patent publication US20030114404.

system: T1, VEGF165 (Homo sapiens), P15692-4; assay: filter; details: 2'-F pyrimidines; 37 C
T1 sequence: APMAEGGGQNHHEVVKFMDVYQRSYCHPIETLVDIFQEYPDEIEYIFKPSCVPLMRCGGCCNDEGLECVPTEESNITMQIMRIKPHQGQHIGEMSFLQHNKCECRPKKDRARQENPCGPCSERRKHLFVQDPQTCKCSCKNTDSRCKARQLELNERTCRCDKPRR

Sequence | Kd [nM]
GGGAGGACGAUGCGGAGAAUCAGUGAAUGCUUAUAAAUCUCGYGUCAGACGACUCGCCCGA [VT30.3] | 0.005
GGGAGGACGAUGCGGAYCAACCGAUUGACGUUAUGGGACGCUGGUCAGACGACUCGCCCGA [VP30.5] | 0.008
GGGAGGACGAUGCGGCGGYACUUUGGAAGAAUUGAAUUUCCCGCUCAGACGACUCGCCCGA [VP30.26] | 0.01
GGGAGGACGAUGCGGUAGGAAGAAUUGGAAGCGCAUUUUCCUCGYCAGACGACUCGCCCGA [VP30.22] | 0.02
GGGAGGACGAUGCGGYGAACCGAUGGAAUUUUUGGACGCUCGCCUCAGACGACUCGCCCGA [VP30.2] | 0.01

system: T2, VEGF, P15692-4; assay: cell_activity; details: NX278 (dialkylglycerol, 2'-NH2, 2'-OMe, PS) embedded in DSPC:cholesterol liposome; KSY-1 Kaposi's sarcoma cell proliferation; HUVEC IC50 about 300 nM (p159)
T2 sequence: T1 sequence

Sequence | IC50 [nM]
TTTTACCCUGAUGGUAGACGCCGGGGUGTTTTT [NX278-Liposome] | 100
